In article PMC6642535:

Biological target: Flag-tagged wild-type GAPDH (human) (UniProt P04406)
Assay: native gel or EMSA; lysates of stable PANC-1 lines (GFP/wild-type GAPDH, GFP-PRMT3/wild-type GAPDH, GFP-PRMT3/R248K-GAPDH) on 10% native gel; tetrameric form

Sequence of Flag-tagged wild-type GAPDH, P04406 1-335 (enzyme; other documents disagree on this pair) (P04406 whole entry): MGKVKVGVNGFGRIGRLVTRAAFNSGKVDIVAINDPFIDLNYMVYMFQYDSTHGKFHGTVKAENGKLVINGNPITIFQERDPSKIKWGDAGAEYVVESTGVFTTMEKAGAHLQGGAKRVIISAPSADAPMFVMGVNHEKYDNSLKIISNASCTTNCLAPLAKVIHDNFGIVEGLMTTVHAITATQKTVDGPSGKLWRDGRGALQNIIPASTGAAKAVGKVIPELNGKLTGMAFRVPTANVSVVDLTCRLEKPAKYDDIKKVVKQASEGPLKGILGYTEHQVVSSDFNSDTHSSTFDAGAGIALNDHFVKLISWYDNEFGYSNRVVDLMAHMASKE

For “Flag-tagged wild-type GAPDH, P04406 1-335 (enzyme; other documents disagree on this pair)”, the stoichiometry N was 4.
